Residue numbers refer to the chain shown, from its start.
B1: Ab19 (antibody, V domains shown)
VH: EVMLVESGGDLVKPGGSLKLSCAASGFSFSRYTMSWVRQTPEKRLEWVATVSVGSGNTYYLDSVKGRFTISRDNAKNTLFLQMSSLRSEDTALYYCARMGQTQRNAVDYWGQGTSVTVSS
VL: DIVMTQSPSSLSVSAGEKVTMSCKSSQSLFNSGNQKNYLAWYQQKPGQPPKLLIYGASTRESGVPDRFTGSGSGTDFTLTISNVQAEDLAVYLCQNDHSFPLTFGAGTKLEL
B2: Ab22 (antibody, V domains shown)
VH: EVMLVESGGGLVKPGGSLKLSCAASGFTFSSYTMSWVRQTPEKRLEWVATIIGGYGNTYYADSVKGRFTISRDSAKNTLYLQMISLRSEDTALYYCTRLGQTQRNAMDYWGQGTSVTVSS
VL: B1 VL with V3L, F30L, R67T, N83S, L93Y, H98Y, S99Y, F100Y, L102F
B3: Ab24 (antibody, V domains shown)
VH: EVKLVESGGGLVKPGGSLKLSCAGSGFTFSSYTMSWVRQTPEKRLEWVATITIGVNIYYLDSVKGRFTISRDNAKNTLYLQMNSLRSEDTALYYCTRLGQTQRNAMDYWGQGTSVTVSS
VL: B1 VL with S9T, S22T, Q44E, N83S, L93Y, D97V, S99F, F100Y, L102F
B4: Ab20 (antibody, V domains shown)
VH: B2 VH with A23V, A61S, F68I
VL: B1 VL with V3L, S22N, F30L, N83S, L93Y, H98Y, S99Y, F100Y, L102F
B5: Ab17 (antibody, V domains shown)
VH: QVQLKESGPGLVAPSQSLSITCTVSGFSLTSYAISWVRQPPGKGLEWLGEIWTGGGTNYNSALKSRLSISKDNSKSQVFLKMNSLQTDDTARYYCGRLSYGNSLDYWGQGTTLTVSS
VL: DIVMTQSPSSLTVTAGEKVTMSCKSSQSLLNSGNQKNYLTWYQQKPGQPPKLLIYWASTRESGVPDRFTGSGSGTDFTLTVSSVQAEDLAVYYCQNNFIYPLTFGPGTKLELK
B6: Ab38 (antibody, V domains shown)
VH: QIQLVQSGPELKKPGETVKISCKASGYTFTNYGMSWVKQAPGKGLKWMGWINTYSGVPTYADDFKGRFVFSLEASASTAYLQINNLKNEDAATYFCSRWSGPDPLEDHWGQGTTLTVSS
VL: QIVLTQSPAIMSASPGEKVTMTCTASLSLNYIHWYRQRSGTSPKRWIYDTSKLASGVPSRFSGSGSGTSYSLTISSMEAEDAATYYCQQWSSNPWTFGGGTKLEIK
B7: Ab36 (antibody, V domains shown)
VH: EVKLEESGGGLVQPGGSMKLSCVASGFTFSNYWMNWVRQSPEKGLEWVAQIRLKSDNYATHYAESVKGMFTISRDDSKSSVYLQMNNLRAEDTGIYYCTAGGDYWGQGTTLTVSS
VL: DIVMTQSQKFMSTTVGDRVSITCKASQNVGTAVAWYHQKPGQSPKLLIYSASNRYTGVPDRFIGSGSGTDFTLTISNVQSEDLGNYFCQQYINYLLTFGSGTKLEIK
B8: Ab02 (antibody, V domains shown)
VH: QVQLKESGPGLVAPSQSLSITCTVSGFSLTSYAINWVRQPPGKGLEWLGVIWTGGGTNYNSALKSRLSINKDNSKSQVFLKMNSLQTDDTARYYCARFYDGYYSWFAYWGQGTLVTVSA
VL: DIVMTQSHKFMSTSVGDRVSITCKASQDVGTAVTWYQQKPGQSPKLLIYWASTRHTGVPDRFTGSGSGTDFTLTISNVQSEDLADYFCQQYSSYPFTFGSGTKLEIK
B9: Ab18 (antibody, V domains shown)
VH: QVQLKESGPGLVAPSQSLSITCTVSGFSLTTYGINWVRQPPGKGLEWLGVIWGDGSTNYHSALISRLSISKDNSKSQVFLKLNSLQTDDTATYYCVKSSYYGNAMDYWGQGTSVTVSS
VL: DIVMTQSPSSLTVTAGETVTMSCKSSQSLLNSGNQKNYLTWYQQKPGQPPKLLIYWASTRESGVPDRFTGSGSGTDFTLTISSVQAEDLAVYYCQNVYSYPFTFGSGTKLEI
B10: Ab21 (antibody, V domains shown)
VH: B2 VH with A61V
VL: B1 VL with V3L, F30L, N83S, L93Y, H98Y, S99Y, F100Y, L102F

These binders were tested against Rhesus monkey Claudine18.2 (Rhesus monkey) (UniProt F6YQY3) (assay: FACS on CHOK1-rh18.2 cells).

FACS MFI | Binder
6290 | B1
7330 | B2
7520 | B3
7050 | B4
6680 | B5
15600 | B6
17400 | B7
1400 | B8
7890 | B9
8240 | B10

The binders below were run against mouse Claudine18.2 (mouse) (UniProt P56857) (assay: FACS on CHOK1-m18.2 cells).

FACS MFI | Binder
13400 | B1
15500 | B2
12800 | B3
13800 | B4
13300 | B5
20400 | B6
21600 | B7
2040 | B8
13500 | B9
15200 | B10

Each binder was assayed against human Claudin18.1 (CLDN18.1) (human) (UniProt P56856) (assay: FACS on CHOK1-18.1 cells).
human Claudin18.1 (CLDN18.1) (human), sequence (P56856 whole entry): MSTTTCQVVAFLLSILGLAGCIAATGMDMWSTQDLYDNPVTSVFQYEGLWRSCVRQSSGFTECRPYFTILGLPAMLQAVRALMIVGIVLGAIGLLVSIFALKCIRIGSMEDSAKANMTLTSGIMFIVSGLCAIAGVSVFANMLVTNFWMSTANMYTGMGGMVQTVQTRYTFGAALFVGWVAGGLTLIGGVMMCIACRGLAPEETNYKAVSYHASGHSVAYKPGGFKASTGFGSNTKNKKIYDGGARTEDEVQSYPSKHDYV

FACS MFI | Binder
4470 | B6
4300 | B7

From patent publication US20230095569A1
